{"source": "IntAct's records for PubMed 12351681", "parents": {"B1": {"name": "Protein Tube (Drosophila melanogaster (Fruit fly)), P22812 (parent)", "chain": "MAYGWNGCGMGVQVNGSNGAIGLSSKYSRNTELRRVEDNDIYRLAKILDENSCWRKLMSIIPKGMDVQACSGAGCLNFPAEIKKGFKYTAQDVFQIDEAANRLPPDQSKSQMMIDEWKTSGKLNERPTVGVLLQLLVQAELFSAADFVALDFLNESTPARPVDGPGALISLELLEEEMEVDNEGLSLKYQSSTATLGADAQGSVGLNLDNFEKDIVRRDKSVPQPSGNTPPIAPPRRQQRSTTNSNFATLTGTGTTSTTIPNVPNLTILNPSEQIQEPVLQPRPMNIPDLSILISNSGDLRATVSDNPSNRTSSTDPPNIPRITLLIDNSGDVNSRPNHAPAKASTATTSTASSNNLPMISALNISKGSRETLRPESRSSSSSLSKDDDDDNDGEEDGEEEYPDAFLPNLSNSEQQSSNNDSSLTTVTGTSGDNSFELTNDSSSTSNDDYACNIPDLSELQQ", "partner": "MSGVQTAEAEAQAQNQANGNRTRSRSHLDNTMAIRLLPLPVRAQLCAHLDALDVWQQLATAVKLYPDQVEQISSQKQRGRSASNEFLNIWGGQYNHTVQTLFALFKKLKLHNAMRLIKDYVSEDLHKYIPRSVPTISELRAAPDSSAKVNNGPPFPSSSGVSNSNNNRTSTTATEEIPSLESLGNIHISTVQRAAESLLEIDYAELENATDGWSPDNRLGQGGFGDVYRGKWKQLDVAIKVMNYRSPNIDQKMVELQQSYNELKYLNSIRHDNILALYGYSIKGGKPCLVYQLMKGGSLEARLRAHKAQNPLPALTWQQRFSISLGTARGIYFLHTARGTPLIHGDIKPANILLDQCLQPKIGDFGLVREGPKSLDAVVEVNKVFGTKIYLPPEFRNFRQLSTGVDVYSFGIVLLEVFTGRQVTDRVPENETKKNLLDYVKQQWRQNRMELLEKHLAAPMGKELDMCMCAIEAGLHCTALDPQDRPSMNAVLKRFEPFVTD"}}, "data": [{"variants_of": "B1", "details": "with kpel_drome pll", "values": [{"variant": "E50K", "effect of a mutation on the interaction": "decreasing interaction"}]}]}
